In US20020019014A1, “Methods of identifying prosaposin receptor agonists and antagonists” (priority 1997, published 2002):
“Also recorded” adds a separate entry of the source. Like-named read-outs stand apart in the source and are kept apart here.

B1: saposin A: saposin from prosaposin; inactive compound that binds the receptor without stimulating effector functions (protein, UniProt P07602 60-142, looked up)
Saposin-A: SLPCDICKDVVTAAGDMLKDNATEEEILVYLEKTCDWLPKPNMSASCKEIVDSYLPVILDIIKGEMSRPGEVCSALNLCESLQ
modifications: Saposin-A
B2: saposin C: heat-stable glycoprotein generated by proteolytic processing of prosaposin (protein, UniProt P07602 311-390, looked up)
Saposin-C: SDVYCEVCEFLVKEVTKLIDNNKTEKEILDAFDKMCSKLPKSLSEECQEVVDTYGSSILSILLEEVSPELVCSMLHLCSG
modifications: Saposin-C
B3: prosaposin: 70 kilodalton glycoprotein, precursor of saposins A, B, C and D (protein, UniProt P07602 17-524, looked up)
pro-form: GPVLGLKECTRGSAVWCQNVKTASDCGAVKHCLQTVWNKPTVKSLPCDICKDVVTAAGDMLKDNATEEEILVYLEKTCDWLPKPNMSASCKEIVDSYLPVILDIIKGEMSRPGEVCSALNLCESLQKHLAELNHQKQLESNKIPELDMTEVVAPFMANIPLLLYPQDGPRSKPQPKDNGDVCQDCIQMVTDIQTAVRTNSTFVQALVEHVKEECDRLGPGMADICKNYISQYSEIAIQMMMHMQPKEICALVGFCDEVKEMPMQTLVPAKVASKNVIPALELVEPIKKHEVPAKSDVYCEVCEFLVKEVTKLIDNNKTEKEILDAFDKMCSKLPKSLSEECQEVVDTYGSSILSILLEEVSPELVCSMLHLCSGTRLPALTVHVTQPKDGGFCEVCKKLVGYLDRNLEKNSTKQEILAALEKGCSFLPDPYQKQCDQFVAEYEPVLIEILVEVMDPSFVCLKIGACPSAHKPLLGTEKCIWGPSYWCQNTETAAQCNAVEHCKRHVWN
modifications: pro-form
notes: 70 kilodalton glycoprotein, precursor of saposins A, B, C and D

How the values were obtained:
prosaposin receptor [1] = details: cited from earlier work
prosaposin receptor [2] = details: cited from earlier work; remark: listed apart in the source
MAPK = assay: MAP kinase (MAPK) phosphorylation assay; assay type: cell-based; details: after binding to the prosaposin receptor
Protocol: PC12 cells are grown to 85% confluence in DME high glucose media containing 10% FBS, 5% horse serum, 100 U/ml penicillin, 100 μg/ml streptomycin and 250 pg/ml fimgizone. Approximately 2×10^6 cells per 100 mm plate are placed in serum-free media for 24 hours prior to addition of compounds capable of binding to the prosaposin receptor. Positive controls are as described previously. Cells are stimulated with the compound of interest, then lysed on ice in 1 ml of 50 mM Tris-HCl, pH 8.0, 150 mM NaCl, 1 mM EGTA, pH 8.0, 100 mM NaF, pH 8.0, 10% glycerol, 1.5 mM MgCl2. 1% (v/v) Triton X-100, 1 mM sodium orthovanadate, 1 mM phenylmethylsulfonyl fluoride (PMSF), 10 μg/ml leupeptin, 20 μg/ml aprotinin. Unsolubilized materials are removed by ultracentrifugation at 12,000 x g at4° C.
Equal amounts of cell lysates are resolved by sodium dodecyl sulfate-polyacrylamide gel electrophoresis (SDS-PAGE) and transferred to a PVDF membrane (Millipore, Bedford, Mass.). Phosphorylated MAPK is identified using PhosphoPlus™ MAPK antibody and an alkaline phosphatase conjugated secondary antibody that emits light in the presence of a chemiluminescent substrate (New England Biolabs, Beverly, Mass.). […] Densitometric data are expressed as a ratio of MAPK-P absorbance units divided by MAPK-C absorbance units. […]

[3] = test system: Newborn mouse cerebellar explants; details: as described in U.S. Pat. No. 5,571,787 and PCT/US94/08453; cited from earlier work
NS20Y cells = details: as described in U.S. Pat. No. 5,571,787 and PCT/US94/08453, cited from earlier work
[4] = test system: NS20Y neuroblastoma cells; details: as described in U.S. Pat. No. 5,571,787 and PCT/US94/08453; cited from earlier work
several proteins = details: cited from earlier work

Molecule	stimulation of receptor effector functions (prosaposin receptor [1])	binding to receptor (prosaposin receptor [2])	phosphorylation of MAPK (MAPK)	stimulation of myelination [3]	prevention of neural cell death (NS20Y cells)	neurite outgrowth [4]	prevention of neural cell death (NS20Y cells; listed as Prosaposin)	incorporation of 32P into several proteins (several proteins)
B1	without stimulating any of its effector functions	binds to the receptor						
B2			stimulate phosphorylation of MAPK	stimulate myelination	prevent neuronal cell death; also recorded: prevent neural cell death	induce neurite outgrowth		
B3		binds to a cell surface receptor	stimulate phosphorylation of MAPK	stimulate myelination	prevent neural cell death	induce neurite outgrowth	prevent neuronal cell death	stimulates incorporation of ^32P into several proteins
